The record followed here is article PMC10290117 (2023).

Sequences and labels used below:
T1: HLA-B*0702, biotinylated recombinant HLA class I molecule of the Alpha assay (human, biotin)
T1 chain: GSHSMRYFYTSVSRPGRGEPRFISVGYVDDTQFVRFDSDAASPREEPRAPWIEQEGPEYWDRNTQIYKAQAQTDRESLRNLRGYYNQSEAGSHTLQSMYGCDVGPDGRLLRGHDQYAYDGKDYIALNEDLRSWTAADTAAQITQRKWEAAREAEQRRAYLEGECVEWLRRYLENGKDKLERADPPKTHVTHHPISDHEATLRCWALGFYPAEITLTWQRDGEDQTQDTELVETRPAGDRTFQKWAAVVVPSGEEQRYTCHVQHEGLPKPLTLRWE

B1: E7P-MLL_(747–755) peptide EPR(E7P)PSHSM (peptide)
chain: EPR[Abu(4-PO3H2)]PSHSM
B2: pDOT1L_(998–1006) phosphopeptide LPA(pS)PAHQL (peptide)
peptide: LPA[pS]PAHQL
B3: pMLL_(747–755) phosphopeptide EPR(pS)PSHSM (peptide)
peptide: EPR[pS]PSHSM
B4: DOT1L_(998–1006) peptide LPASPAHQL (peptide)
peptide: LPASPAHQL
B5: OSE-MLL_(747–755) peptide EPR(OSE)PSHSM (peptide)
peptide: EPR[OSE]PSHSM
B6: MLL_(747–755) peptide EPRSPSHSM (peptide)
peptide: EPRSPSHSM

Numbered stars: 1 amine (or outer) side, 2 acyl side, 3 side chain; on linkers, the order of the positions; unused ones are H or OH. Square brackets hold non-standard residues; d marks the D form. Ends that are not written are not given here. OSE = (2S)-2-amino-3-sulfooxy-propanoic acid, sulfo-serine, O=C([C@H](COS(=O)(=O)O)N[*:1])[*:2]; Abu(4-PO3H2) = N[C@@H](CCP(=O)(O)O)C(=O)O; pS = N[C@@H](COP(=O)(O)O)C(=O)O

Usually Kd stands for the free concentration of one partner at which half of the binding sites on the other are occupied at equilibrium, for simple one-to-one binding.

For this assay, the target named is T1, HLA-B*0702, biotinylated recombinant ….
For B1, the Kd came to 33.9 nM.
Regarding B2, the Kd is 309 nM.
The value for B3 was 56.7 nM.
Take B4: the Kd was 54.3 nM.
On to B5, for which the Kd worked out at 26.2 nM.
As for B6, the Kd is 27 nM.
